# From KR20230010676A
# Molecular target: SARS-CoV-2 스파이크 D19 (VSV 슈도바이러스) (SARS-CoV-2) (UniProt P0DTC2)
# Assay: cell-based or functional assay
substance,measurement,value
S2D106-LS (antibody),"EC50 (neutralisation, interpolated)",3.6 ng/mL
same,"EC90 (neutralisation, interpolated)",15.4 ng/mL
same,IC50 (neutralisation),3.38 ng/mL
